Patent publication US20220064257A1 (published 2022)
“And” between values parts separate entries of the source, which are not always exact repeats. Identical values can stand only once.

Key:
[1] = target: T1, MYD88 L265P peptide on HLA-B*07:02 (human); test: printed as KD (TCR affinity/avidity): non-linear curve analysis of the IFNγ ELISA response; TCR-transduced CD8+ T cells from healthy donors with K562 cells transduced with HLA*B07:02 and loaded with titrated peptide; full-length, on cells
T1 peptide: RPIPIKYKAM

[2] = target: T2, human self peptide predicted by Expitope for TCR2304 (source protein not named) peptide on HLA-B*07:02 (human); test: cytokine release
T2 peptide: VPIIIKYLMF

[3] = target: T3, human self peptide predicted by Expitope for TCR2304 (source protein not named) peptide on HLA-B*07:02 (human); test: cytokine release
T3 peptide: RPVPISYHQL

[4] = target: T4, human self peptide predicted by Expitope for TCR2304 (source protein not named) peptide on HLA-B*07:02 (human); test: cytokine release
T4 peptide: LPLYISYVAM

[5] = target: T5, human self peptide predicted by Expitope for TCR2304 (source protein not named) peptide on HLA-B*07:02 (human); test: cytokine release
T5 peptide: LPQSIVYKYM

[6] = target: T6, human self peptide predicted by Expitope for TCR2304 (source protein not named) peptide on HLA-B*07:02 (human); test: cytokine release
T6 peptide: RPDLIDYKSL

[7] = target: T7, human self peptide predicted by Expitope for TCR2304 (source protein not named) peptide on HLA-B*07:02 (human); test: cytokine release
T7 peptide: TPPKIPYKAI

[8] = target: T8, human self peptide predicted by Expitope for TCR2304 (source protein not named) peptide on HLA-B*07:02 (human); test: cytokine release
T8 peptide: LPTRIAYYAM

[9] = target: T9, human self peptide predicted by Expitope for TCR2304 (source protein not named) peptide on HLA-B*07:02 (human); test: cytokine release
T9 peptide: RPRMIGYGAI

[10] = target: T10, human self peptide predicted by Expitope for TCR2304 (source protein not named) peptide on HLA-B*07:02 (human); test: cytokine release
T10 peptide: RPAMIPYWAL

[11] = target: T11, human self peptide predicted by Expitope for TCR2304 (source protein not named) peptide on HLA-B*07:02 (human); test: cytokine release
T11 peptide: RPQPIYYGFS

[12] = target: T12, human self peptide predicted by Expitope for TCR2304 (source protein not named) peptide on HLA-B*07:02 (human); test: cytokine release
T12 peptide: LPIHITYAAM

[13] = target: T13, MYD88 L265P epitope of SEQ ID NO: 2 with alanine at position 2 (alanine scan); residues derived from the … (human); test: cytokine release
T13 peptide: RAIPIKYKAM

[14] = target: T14, human self peptide predicted by Expitope for TCR2304 (source protein not named) peptide on HLA-B*07:02 (human); test: cytokine release
T14 peptide: KPIRIGYKIW

B1: TCR1336 (TCR, V domains shown)
Valpha: GENVEQHPSTLSVQEGDSAVIKCTYSDSASNYFPWYKQELGKRPQLIIDIRSNVGEKKDQRIAVTLNKTAKHFSLHITETQPEDSAVYFCAASGRYDYKLSFGAGTTVTVRA
Vbeta: DAMVIQNPRYQVTQFGKPVTLSCSQTLNHNVMYWYQQKSSQAPKLLFHYYDKDFNNEADTPDNFQSRRPNTSFCFLDIRSPGLGDAAMYLCATASDLQGDRSTEAFFGQGTRLTVV
[1]
  EC50 of peptide: 0.387 µg/ml and 310 nM

B2: TCR1605 (TCR, V domains shown)
Valpha: GESVGLHLPTLSVQEGDNSIINCAYSNSASDYFIWYKQESGKGPQFIIDIRSNMDKRQGQRVTVLLNKTVKHLSLQIAATQPGDSAVYFCAEGTGSARQLTFGSGTQLTVLP
Vbeta: DVKVTQSSRYLVKRTGEKVFLECVQDMDHENMFWYRQDPGLGLRLIYFSYDVKMKEKGDIPEGYSVSREKKERFSLILESASTNQTSMYLCASGPFRDSVLTLVANVLTFGAGSRLTVL
[1]
  EC50 of peptide: 0.009 µg/ml and 7.4 nM

B3: TCR1610 (TCR, V domains shown)
Valpha: KQEVTQIPAALSVPEGENLVLNCSFTDSAIYNLQWFRQDPGKGLTSLLLIQSSQREQTSGRLNASLDKSSGRSTLYIAASQPGDSATYLCAPLGGGYNKLIFGAGTRLAVHP
Vbeta: NAGVTQTPKFRILKIGQSMTLQCAQDMNHNYMYWYRQDPGMGLKLIYYSVGAGITDKGEVPNGYNVSRSTTEDFPLRLELAAPSQTSVYFCASRLPTTDEKLFFGSGTQLSVL
[1]
  EC50 of peptide: 0.009 µg/ml and 7.4 nM

B4: TCR2202 (TCR, V domains shown)
Valpha: LAKTTQPISMDSYEGQEVNITCSHNNIATNDYITWYQQFPSQGPRFIIQGYKTKVTNEVASLFIPADRKSSTLSLPRVSLSDTAVYYCLSLSDSNYQLIWGAGTKLIIKP
Vbeta: DSGVTQTPKHLITATGQRVTLRCSPRSGDLSVYWYQQSLDQGLQFLIQYYNGEERAKGNILERFSAQQFPDLHSELNLSSLELGDSALYFCASSVGQGSYEQYFGPGTRLTVT
[1]
  EC50 of peptide: 0.033 µg/ml and 27 nM

B5: TCR2205 (TCR, V domains shown)
Valpha: LAKTTQPISMDSYEGQEVNITCSHNNIATNDYITWYQQFPSQGPRFIIQGYKTKVTNEVASLFIPADRKSSTLSLPRVSLSDTAVYYCLVGRDGGSYIPTFGRGTSLIVHP
Vbeta: DSGVTQTPKHLITATGQRVTLRCSPRSGDLSVYWYQQSLDQGLQFLIHYYNGEERAKGNILERFSAQQFPDLHSELNLSSLELGDSALYFCASSAGQGAYEQYFGPGTRLTVT
[1]
  EC50 of peptide: 0.004 µg/ml and 3.2 nM

B6: TCR2207 (TCR, V domains shown)
Valpha: GQNIDQPTEMTATEGAIVQINCTYQTSGFNGLFWYQQHAGEAPTFLSYNVLDGLEEKGRFSSFLSRSKGYSYLLLKELQMKDSASYLCAVDVGYSTLTFGKGTMLLVSP
Vbeta: GAVVSQHPSWVICKSGTSVKIECRSLDFQATTMFWYRQFPKQSLMLMATSNEGSKATYEQGVEKDKFLINHASLTLSTLTVTSAHPEDSSFYICSARDRSGTLGGELFFGEGSRLTVL
[1]
  EC50 of peptide: 0.003 µg/ml and 2.4 nM

B7: TCR2219 (TCR, V domains shown)
Valpha: QQPVQSPQAVILREGEDAVINCSSSKALYSVHWYRQKHGEAPVFLMILLKGGEQMRHEKIFASFNEKKQQSSLYLTASQLSYSGTYFCGTAHLRAGSYQLTFGKGTKLSVIP
Vbeta: EAQVTQNPRYLITVTGKKLTVTCSQNMNHEYMSWYRQDPGLGLRQIYYSMNVEVTDKGDVPEGYKVSRKEKRNFPLILESPSPNQTSLYFCASSSSSGGAFNEQFFGPGTRLTVL
[1]
  EC50 of peptide: 0.123 µg/ml and 100 nM

B8: TCR2304 (TCR, V domains shown)
Valpha: GQNIDQPTEMTATEGAIVQINCTYQTSGFNGLFWYQQHAGEAPTFLSYNVLDGLEEKGRFSSFLSRSKGYSYLLLKELQMKDSASYLCAVRASGTYKYIFGTGTRLKVLA
Vbeta: DAGVIQSPRHEVTEMGQEVTLRCKPISGHNSLFWYRQTMMRGLELLIYFNNNVPIDDSGMPEDRFSAKMPNASFSTLKIQPSEPRDSAVYFCASQDSYEQYFGPGTRLTVT
[2]
  binding result: no recognition
[3]
  binding result: no recognition
[4]
  binding result: no recognition
[5]
  binding result: no recognition
[6]
  binding result: no recognition
[7]
  binding result: no recognition
[8]
  binding result: no recognition
[9]
  binding result: no recognition
[10]
  binding result: no recognition
[11]
  binding result: no recognition
[12]
  binding result: no recognition
[13]
  binding result: no recognition
[14]
  binding result: no recognition
[1]
  EC50 of peptide: 0.003 µg/ml and 2.4 nM

B9: TCR2705 (TCR, V domains shown)
Valpha: QKEVEQDPGPLSVPEGAIVSLNCTYSNSAFQYFMWYRQYSRKGPELLMYTYSSGNKEDGRFTAQVDKSSKYISLFIRDSQPSDSATYLCAMSGTGGFKTIFGAGTRLFVKA
Vbeta: ETGVTQTPRHLVMGMTNKKSLKCEQHLGHNAMYWYKQSAKKPLELMFVYSLEERVENNSVPSRFSPECPNSSHLFLHLHTLQPEDSALYLCASSQDRPNYYGYTFGSGTRLTVV
[1]
  EC50 of peptide: 0.02 µg/ml and 16 nM

B10: TCR2709 (TCR, V domains shown)
Valpha: DAKTTQPNSMESNEEEPVHLPCNHSTISGTDYIHWYRQLPSQGPEYVIHGLTSNVNNRMASLAIAEDRKSSTLILHRATLRDAAVYYCILRDRYGGSQGNLIFGKGTKLSVKP
Vbeta: NAGVTQTPKFRVLKTGQSMTLLCAQDMNHEYMYWYRQDPGMGLRLIHYSVGEGTTAKGEVPDGYNVSRLKKQNFLLGLESAAPSQTSVYFCASSYWPTTGESTDTQYFGPGTRLTVL
[1]
  EC50 of peptide: 0.102 µg/ml and 83 nM

B11: TCR2716 (TCR, V domains shown)
Valpha: AQTVTQSQPEMSVQEAETVTLSCTYDTSENNYYLFWYKQPPSRQMILVIRQEAYKQQNATENRFSVNFQKAAKSFSLKISDSQLGDTAMYFCAFMKPYSGGGADGLTFGKGTHLIIQP
Vbeta: AAGVIQSPRHLIKEKRETATLKCYPIPRHDTVYWYQQGPGQDPQFLISFYEKMQSDKGSIPDRFSAQQFSDYHSELNMSSLELGDSALYFCASSLAGTTVYNEQFFGPGTRLTVL
[1]
  EC50 of peptide: 0.099 µg/ml and 81 nM

B12: TCR2719 (TCR, V domains shown)
Valpha: LAKTTQPISMDSYEGQEVNITCSHNNIATNDYITWYQQFPSQGPRFIIQGYKTKVTNEVASLFIPADRKSSTLSLPRVSLSDTAVYYCLVGADSNYQLIWGAGTKLIIKP
Vbeta: DSGVTQTPKHLITATGQRVTLRCSPRSGDLSVYWYQQSLDQGLQFLIQYYNGEERAKGNILERFSAQQFPDLHSELNLSSLELGDSALYFCASSPGGGAYEQYFGPGTRLTVT
[1]
  EC50 of peptide: 0.024 µg/ml and 19 nM
